The data set in a line: yeast display, Sf9 membrane polyspecificity reagent, FACS + sequencing; frameworks hold sequencing errors. An outline of the steps: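 Polyreactivity labels are assigned by the sorting gate from which each nanobody was recovered. The gates were low and high (top ~1%), set on anti-HA fluorescence for expression and streptavidin fluorescence for reagent binding. Before sorting, galactose-induced (36–48 hours) yeast display cells were stained for 1 hour at 4 °C with 10% biotinylated, detergent-solubilized Sf9 membrane reagent.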
Regarding “QVQLVESGGGLVQAGGSLRLRCAASGITFSWYDMGWYRQAPGKERELVAAISWSGGRTYYADSVKGRFTISRDNAKNTVYLQMNSLKPEDTAVYYCNAVGVGYVGYLYGYLGQGTQVTVSS”, the “polyreactivity (PSR sort gate)” value is on record as “high polyreactivity”.

In the case of “QVQLVESGGGLVQAGGSLRLRCAASGITLLNYAMGWYRQAPWKERELVAAISWSGGRTYYADSVKGRFTMSRDNAKNTDYLHMNSLNPQDTAVYYCAAARGVNSYGYWGQGTQVTVSS”, the “polyreactivity (PSR sort gate)” value was “high polyreactivity”.

As for “QVQLVESGGGLVQAGGSLRLRCAASGITTRTYAMGWYRQAPGKERELVAAISDSGDRTYYADSVKGRFTISRDKAKNTVYFQMNSVKPEDTAVYYCAVDGPGPRCEFWGQGTKVTVSS”, the “polyreactivity (PSR sort gate)” value is given as “low polyreactivity”.

As for “QVQLVESGGGLVQAGGSLRLRCAASGLMFYDNMGCYRQAPGKERELVAAISSSGGSTSYADSVKGRFTISRDNAKNTVYLQMNSLKPEDTAVYYCAAKWSLVRDCPKYDYWGQGTQVTVSS”, the “polyreactivity (PSR sort gate)” value is “low polyreactivity”.

Take “QVQLVESGGGLVQAGGSLRLRCAASGLTFAYNTMGWYRQAPGKEREFVASISSSGGNTYYADSVKGRFTISRDNAKNTVYLQMNSLKPEDTAVYYCAAKKKYHYVASYKRFEYWGQGTQVTVSS”: the “polyreactivity (PSR sort gate)” value was “low polyreactivity”. In the case of “QVQLVESGGGLVQAGGSLRLRCAASGLTFTYYAMGWYRQAPGKERELVAAISSGGNTNYADSVKGRFTISRDNAKNTVYLQMNSLKPEDTGVYYCAADDYYDHRVIYRSWYDYWGQGTQVTVSS”, the “polyreactivity (PSR sort gate)” value is reported as “low polyreactivity”. On to “QVQLVESGGGLVQAGGSLRLRCAASGRIFGYYPMGWYRQAPGKERELDADITESGTSTYYADSVKGRFTISRDNAKNTVYLQMNSLKRVDTAVYYCAAGYWWRYALYGYWGQGTQVTVSS”, for which the “polyreactivity (PSR sort gate)” value is given as “low polyreactivity”.

Consider “QVQLVESGGGLVQAGGSLRLRCAASGRIFPLYAMGWYRQAPGKERELVATISYSGSSTYYADSVKGRFTISRDYAKNSVYLQMNSLKPEDTAVFYFNADAFGPPGVEYYYRGQGTQVTVSS”, for which the “polyreactivity (PSR sort gate)” value was “low polyreactivity”. Take “QVQLVESGGGLVQAGGSLRLRCAASGRIFRYYAMGWYRQAPGKARELVARITSSGSTYYADSVKGRFTISRDNAKNTVYLQMNSLKPEDTAVYYCAADWYRGGIVDSWGQGTQVTVSS”: the “polyreactivity (PSR sort gate)” value is “high polyreactivity”.

As to “QVQLVESGGGLVQAGGSLRLRCAASGRIRYYGIGCYRQAPGKERELVAAITWRAGRTYYADSVKGRFTISRDNANITVYLHMNSLKPEDSAVYYCAAAIYSRSFRVDYWGQGTQVSVSS”, the “polyreactivity (PSR sort gate)” value is recorded as “high polyreactivity”.

In the case of “QVQLVESGGGLVQAGGSLRLRCAASGRTFFVYTMGWYRQAPGKERELVAAITSDTSTTYADSVKGRFTISRDNAKNTVYLQMISLKPEDTAVYYCAAEGYVGYYDYDYWGQGTQVTVSS”, the “polyreactivity (PSR sort gate)” value is listed as “low polyreactivity”. With “QVQLVESGGGLVQAGGSLRLRCAASGRTFSHYAMGWYRQAAGKESELVATITRNGGITYYADSVKGRFTISRDNAKNTVYLQMNSLKPEDTAVYYCNKRWGGPIQFDYWGQGTQVTVSS”, the “polyreactivity (PSR sort gate)” value is “low polyreactivity”. With “QVQLVESGGGLVQAGGSLRLRCAASGRTFWRYAMGWYRQAPGKEREFVAAISSSGGNTYYADSVKGRFTITRDNANNTVYLQTNSLKPEDTAVYYCAAYYITALGIKDYVRYYWGQGTQVTVSS” the entry was “high polyreactivity”. With “QVQLVESGGGLVQAGGSLRLRCAASGRTFYPYAMGWYRQAPGKERELVAAINWSGTSTYYADSVKGRFTISRDNAKNTVYLQMNSLKPEDTAVYYCAAKQYPVLHYSLTEADMDYWGQGTQVTVSS” the entry was “low polyreactivity”; with “QVQLVESGGGLVQAGGSLRLRCAASGRTLSSYAMGWYREAPGKERELVAAITRSGGSTYYADSVNGRFTISRDIAKNTVYLQMNSLKPEDTAVYYCAADGYRRYGSWGQGTQVTVSS”, “high polyreactivity”; with “QVQLVESGGGLVQAGGSLRLRCAASGRTLYRYAMGWYRQAPGKEREFVAAISSSGGSTYYADSVKGSFTISRDNAKNTVYLQMNSLKPEDTAVYYCAARYGSSYAWSNYWGQGTQVTVSS”, “high polyreactivity”.

As for “QVQLVESGGGLVQAGGSLRLRCAASGSIFGLYAMGWYRQAPGKERELVAAINQSGGSTTYADSVKGRCTISRDNAKTPVYLQMNSLKPEATAGYSCPADSVGDYGYQVYASWGYEDEYCGQGTQVTVSS”, the “polyreactivity (PSR sort gate)” value was “low polyreactivity”. As for “QVQLVESGGGLVQAGGSLRLRCAASGSIFKPYAMGWYRQAPGNERELVAAINRGGTSTYYADSVKGRFTISRDNAKNTVYFQMNSLKPEDTAVYYCAAPNRYSVPMYYWGQGTQVTVSS”, the “polyreactivity (PSR sort gate)” value is listed as “low polyreactivity”. Take “QVQLVESGGGLVQAGGSLRLRCAASGSIFNSYAMGWYIQAPGKERELVAAISIRGTRTYYADSVKGRFTISRDNAKNTVYLQMNSLKPEDTAVYYCAADASYTEGMDYWGQGTQVTVLS”: the “polyreactivity (PSR sort gate)” value is “high polyreactivity”. With “QVQLVESGGGLVQAGGSLRLRCAASGSIFRRYAMGRYRQAPGKERELVATITSTDSTNYADSVKGRFTISRDNAKNTVYLQMNSLKPEDTAVYYCAKRPYDYRLNSEYYYWGQGTQVTVSS”, the “polyreactivity (PSR sort gate)” value is “low polyreactivity”. Regarding “QVQLVESGGGLVQAGGSLRLRCAASGSTFINNAMGWYRQAPGKERELVAAISGSGVSTYYADSVKGRFTISRDNAKNTVYLQMNSLKPEDTAVYYCNKRYRNYFWYKPYSTKYEYWGQGTQVTVSS”, the “polyreactivity (PSR sort gate)” value was “high polyreactivity”. As for “QVQLVESGGGLVQAGGSLRLRCAASGSTFPPNAMGWYRQAPGKERELVAVISNGGSNTRYADSVKGRFTISRDHAKNTVYLQMNSLKPEDTAVYYCAADYEYSGYGYWGQGTQVTVSS”, the “polyreactivity (PSR sort gate)” value is listed as “high polyreactivity”. The result for “QVQLVESGGGLVQAGGSLRLRCAASGSTFRQYAMGWYRQAPGKERELVAAISSGGRTNYADSVKGRFTISRDNAKNTVYLQMNSLKPEDTAVYYCAADIRRRVPVRGYYYWGQGTQVTVSS” reads “high polyreactivity”. As for “QVQLVESGGGLVQAGGSLRLRCAASGSTYVYAIGWYRQAPGKDRELVASISWSDSSTYYADSVKGRFTISRDNAKNTVYLQMNSLKPEETAFYYCNADQGTRDSDYWGQGTQVTVSS”, the “polyreactivity (PSR sort gate)” value is on record as “low polyreactivity”. As to “QVQLVESGGGLVQAGGSLRLRCAASGYTFPSNAKGWYRQAPGKERELVAPISSGGRTNYADSVKGRFTISRDNAKNTVYLLMKSLKPEDTAVYYSNADGGPGYPRAYDYWGQVTQVTVSS”, the “polyreactivity (PSR sort gate)” value is given as “low polyreactivity”.

Regarding “QVQLVESGGGLVQAGGSLRLRCAASGYTLGPYAMGWYRQAPGKEREEVAALSWGGGRTYYADSVKGRFTISRDNAKNTVYLQMNSLKPEDTAVYYCGAKWSHVRDGPKYDYWGQGTQVTVSS”, the “polyreactivity (PSR sort gate)” value was “low polyreactivity”. Consider “QVQLVESGGGLVQAGGSLRLRCAATGFIFSSYAMGWYRQAPGKERELVAAINRSGSTYYADSVKGRFTISRDNAKNTVYLQMNSLKPEDTADYYCNARRYYYRYRNYDYWGQGTQVTVSS”, for which the “polyreactivity (PSR sort gate)” value was “high polyreactivity”.

Regarding “QVQLVESGGGLVQAGGSLRLRCAATGSIFTKYAMGWYRQAPGKERELVAAISWSGSRTRYADSVKGRFTISRDNAKNTVYLQMNSLKPEDTAVYYCAAEIAASYRPEYDYWGQGTQVTVSS”, the “polyreactivity (PSR sort gate)” value is “high polyreactivity”. “QVQLVESGGGLVQAGGSLRLRCADSGRNFVSNAMGWYRQAPGKERELVAAISKSGARTSYADSVKGRFTISRDNAKNTVYLQMNRLKPEDTAVYYCAAPVRWSGGGEYPNYYWGQGTQVTVSS”: the “polyreactivity (PSR sort gate)” value is “high polyreactivity”.

As for “QVQLVESGGGLVQAGGSLRLRCADSGSTFYDNAMGWYRQATGKVRELVATISDSGGRTYYADSVKGRFTISRDNAKNTVYLQMNSLKPEDTAVYYCAADNYYITTVTDMYYWGQGTQVTVSS”, the “polyreactivity (PSR sort gate)” value is “low polyreactivity”. Turning to “QVQLVESGGGLVQAGGSLRLRCAPSGSIFSAYAMGWYRQAPGKVREVVAGISKSGARTYYADSVKGRFTLSRDNAKNTVYLQMNRLKPEDTAVYYCAAVDYYLYYYWGQGTQVTVSS”, the “polyreactivity (PSR sort gate)” value was “high polyreactivity”.

Take “QVQLVESGGGLVQAGGSLRLRCGASGFIFEHYAMGWYRPAPAKERDFVAAISGSGGNKYYADSVKGRFTISRDNAKNTVYLQMNSLKPEDTAVYSCNKVDGTTLDDHYMDYWGQGTQVTVSS”: the “polyreactivity (PSR sort gate)” value is “low polyreactivity”.

Turning to “QVQLVESGGGLVQAGGSLRLRGAAAGYNFLRYAIGWYRQAPGTERELVAAITNTGNTNYADSVKGRFTISRDNAKNTVYLQMNSLKPEDTAVYSCAAEYYWYSWKNRYKEYDYWGQGTQVTLSS”, the “polyreactivity (PSR sort gate)” value is on record as “low polyreactivity”. Turning to “QVQLVESGGGLVQAGGSLRLRGAASGFTFLYYAMGWYRQAPGKERELVAAITWSGDSTYYADSEKGRFTISRDYAMNTVYLQMNSLKPEDTAVYYCATGGVTFGSVVRGVDGDYWGQGTQVTVSS”, the “polyreactivity (PSR sort gate)” value is “low polyreactivity”. As for “QVQLVESGGGLVQAGGSLRLRGAASGSTFYRYAMGWSRQAPGKERELVAAISWSAGRTYYADSVKGRFTISRYTAKNTVYLQMNSLKPEDTAVYYCAARGWYKSDYWGQGTQVTVSS”, the “polyreactivity (PSR sort gate)” value is recorded as “low polyreactivity”. In the case of “QVQLVESGGGLVQAGGSLRLSCAAAGRIFSYNAMGWYRQAPGKERELVAAISSGGSTYYADSVKGRFTISRDNAKNTFYLQMNSLKPEDTAVYYCAADRRYYSDMYYWGQGTQVTVSS”, the “polyreactivity (PSR sort gate)” value is reported as “low polyreactivity”. For “QVQLVESGGGLVQAGGSLRLSCAAAGRIFVQYDMGWYRQAAGKERELVAAIIDSGDITYYADSVKGRYTSSRDNAKNTVYLQMNSLKPEDTAVYDCAASAAYYGFYKSVTYDYWGQGTQVTVSS”, the “polyreactivity (PSR sort gate)” value is reported as “low polyreactivity”. Consider “QVQLVESGGGLVQAGGSLRLSCAAAGRTIRRIAMGWYRQAPGKERELVAAISKSGGRTYYADSVKGRFTISRDKAKKTVYLQMNSMKPEDTAVYYCGAYDTVYNSGDYDYWGQGTQVTVSS”, for which the “polyreactivity (PSR sort gate)” value is on record as “high polyreactivity”. The result for “QVQLVESGGGLVQAGGSLRLSCAAAGSTFSSYAMGWYRQAPGKERELVAAITSSGGSTYYADSVKGRFSISRDNAKNTVYIQKNSLKPEDTAVYYCAAADVIFWLYYYWGQGTQVTVSS” reads “low polyreactivity”; that for “QVQLVESGGGLVQAGGSLRLSCAAARYAMGWYRPAPGKERELVAAISKSGGSTYYADSVKGRFTISRDNAKNTVYLQMNSLIPEDTAVYYCAARGHAGRGEYYYWGQGTQVTVSS”, “high polyreactivity”. “QVQLVESGGGLVQAGGSLRLSCAACGFIFRRYAMGWYRQAPGKERELVAAISSGGNTNYADSVKGRFTISRDNAKNTVYLQMNSLKPEDTAVYYCAVLGWYYYKYDYWGQGTQVNVSS”: the “polyreactivity (PSR sort gate)” value is “high polyreactivity”.
